Data on 7 molecules can be found in patent US20160187342, “DNA Aptamer Specifically Binding to EN2 (Engrailed-2) and Use Thereof” (POSTECH ACADEMY-INDUSTRY FOUNDATION, published 2016).

In data set [1] the target is T1, EN2 (Engrailed-2) (UniProt P19622 P19622:1-333).
T1 sequence: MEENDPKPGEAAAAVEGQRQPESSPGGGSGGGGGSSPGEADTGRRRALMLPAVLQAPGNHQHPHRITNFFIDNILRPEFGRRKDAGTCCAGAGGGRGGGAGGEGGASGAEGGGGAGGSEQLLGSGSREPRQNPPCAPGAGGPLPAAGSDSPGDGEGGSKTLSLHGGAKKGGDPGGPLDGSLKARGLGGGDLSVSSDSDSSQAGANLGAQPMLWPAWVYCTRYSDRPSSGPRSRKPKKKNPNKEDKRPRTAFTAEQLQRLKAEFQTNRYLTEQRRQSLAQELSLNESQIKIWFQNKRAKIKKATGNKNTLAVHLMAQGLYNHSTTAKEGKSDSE
The data set can be described thus: FAM fluorescence; second strand printed 3'-5' in Table 1; EMSA, SPR and SYBR Green I displacement also showed binding of TAATTA dsDNA. The following applies: tags: (His)6-tag, pET28a, E. coli BL21(DE3); label: FAM. For orientation: A gel shift assay detects complexes by their altered migration in electrophoresis.

In data set [2] the target is T1, EN2 (Engrailed-2). The data set can be described thus: FAM fluorescence of protein-bound aptamer. Particulars: tags: (His)6-tag, pET28a, E. coli BL21(DE3), hairpin. The protocol:
(§1) Then, in order to compare binding strengths between the EN2 protein and each of the DNA aptamers, a dissociation constant (Kd) between the EN2 protein and each of the DNA aptamers was measured. In this case, fluorescein amidite (FAM) was attached to the DNA aptamer as a marker, and an amount of the DNA aptamer bound to the protein was measured according to a fluorescent signal of FAM.

The target in data set [3] is T1, EN2 (Engrailed-2). Briefly: FAM fluorescence of protein-bound aptamer; printed as hDNA5. Particulars: tags: (His)6-tag, pET28a, E. coli BL21(DE3); label: FAM; hairpin, loop 8 bases, stem 10 bp. The protocol:
as §1

In data set [4] the target is TATA box binding protein (TBP) (UniProt P20226 P20226:1-339). Briefly: impedance biosensor on gold, 10 pM protein in artificial urine. The following applies: label: FAM (Kd assay); poly A linker to gold surface (biosensor); hairpin, loop 8 bases, stem 14 bp. On the procedure:
In order to identify selective binding of the DNA aptamer, a binding specificity with respect to several protein samples was identified. Each protein was mixed in an artificial urine medium to have a concentration of 10 pM, and then it was identified whether binding to the DNA aptamer was performed.

Chain of TATA box binding protein (TBP) (P20226 whole entry, one chain of several): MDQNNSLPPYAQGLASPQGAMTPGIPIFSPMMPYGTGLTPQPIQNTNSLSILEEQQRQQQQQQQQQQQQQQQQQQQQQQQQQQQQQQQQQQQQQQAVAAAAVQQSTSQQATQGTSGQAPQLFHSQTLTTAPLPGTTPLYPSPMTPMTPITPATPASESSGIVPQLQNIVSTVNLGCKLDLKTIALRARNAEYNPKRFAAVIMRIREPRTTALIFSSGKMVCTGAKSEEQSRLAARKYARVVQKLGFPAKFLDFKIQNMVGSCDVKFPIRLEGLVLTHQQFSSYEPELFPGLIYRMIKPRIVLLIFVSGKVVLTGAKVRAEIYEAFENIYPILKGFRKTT

B1: dsDNA probe (dsDNA)
DNA 1: CGTGTAATTACCTC
DNA 2: GAGGTAATTACACG
One may read the Kd as the equilibrium constant for the complex coming apart. Read a high Kd as lower affinity. In the data set with EN2 (Engrailed-2) [1], B1 showed a Kd of 95.2 nM. In the data set with EN2 (Engrailed-2) [2] (label: FAM, loop 8 bases, stem 20 bp), CGCAGTGTAATTACCTCGACCAGAAGGAGTCGAGGTAATTACACTGCG (structured_DNA) [hpDNA6] gave an equilibrium dissociation constant (Kd) of 61 nM. Molecule CGTGTAATTACCTCCAGGGAGAGGTAATTACACG (structured_DNA) [hpDNA2] had a Kd with EN2 (Engrailed-2) [2] (label: FAM, loop 6 bases, stem 14 bp) of 98.8 nM. In the data set with EN2 (Engrailed-2) [2] (label: FAM, loop 4 bases, stem 14 bp), CGTGTAATTACCTCCAGAGAGGTAATTACACG (structured_DNA) [hpDNA1] came in with a dissociation constant Kd of 85.7 nM.

In the data set with EN2 (Engrailed-2) [3], CGTAATTACCCAGAAGGAGGTAATTACG (structured_DNA) [hpDNA5] displayed a dissociation constant Kd of 68.8 nM.

Consider CGTGTAATTACCTCCAGAAGGAGAGGTAATTACACG (structured_DNA) [hpDNA3], for which, in data set [4], the binding result is “no binding”. In the data set with EN2 (Engrailed-2) [2] (label: FAM (Kd assay), poly A linker to gold surface (biosensor), loop 8 bases, stem 14 bp), this molecule returned a Kd of 66.3 nM.

In turn, CGTGTAATTACCTCCAGACCAGGAGAGGTAATTACACG (structured_DNA) [hpDNA4] registered a Kd with EN2 (Engrailed-2) [2] (label: FAM, loop 10 bases, stem 14 bp) of 88.8 nM.
